{"source": "patent US20210032364A1", "key": {"[1]": {"target": "Na+/K+ ATPase α-1 on mouse Lewis Lung LL/2 cancer cells (mouse) (UniProt Q8VDN2)", "assay": "flow cytometry, 5 µg/ml, trypsin-treated intact mouse LL/2 cells"}, "[2]": {"target": "Na+/K+ ATPase α-1 on mouse Lewis Lung LL/2 cancer cells (mouse) (UniProt Q8VDN2)", "assay": "flow cytometry, 5 µg/ml, EDTA-treated permeabilized mouse LL/2 cells"}, "[3]": {"target": "Na+/K+ ATPase α-1 on mouse Lewis Lung LL/2 cancer cells (mouse) (UniProt Q8VDN2)", "assay": "flow cytometry, 5 µg/ml, EDTA-treated intact mouse LL/2 cells"}}, "data": [{"substance": "mAb to Na+/K+ ATPase α-1 (Abcam, Cat. No. ab2826) (antibody)", "values": [{"measurement": "% cells stained", "setting": "[1]", "value": 20.5, "unit": "%"}, {"measurement": "% cells stained", "setting": "[2]", "value": 63.8, "unit": "%"}, {"measurement": "% cells stained", "setting": "[3]", "value": 29.9, "unit": "%"}]}]}
